B1: TEAD4 YBD domain (217-434) with N-terminal SUMO and 6xHis tag (domain or fragment, human, UniProt Q15561 217-434, looked up)
chain: RSVASSKLWMLEFSAFLEQQQDPDTYNKHLFVHIGQSSPSYSDPYLEAVDIRQIYDKFPEKKGGLKDLFERGPSNAFFLVKFWADLNTNIEDEGSSFYGVSSQYESPENMIITCSTKVCSFGKQVVEKVETEYARYENGHYSYRIHRSPLCEYMINFIHKLKHLPEKYMMNSVLENFTILQVVTNRDTQETLLCIAYVFEVSASEHGAQHHIYRLVKE
notes: Detected in the pull-downs with an antibody against 6xHis; also called SUMO-TEAD4; SUMO-tagged TEAD4-YBD; source: Escherichia coli BL21 (DE3), purified (Ni-NTA, Superdex 200); not shown: SUMO, N-terminal, kept; His6, N-terminal, kept

How the values were obtained:
Settings in all cases: both partners purified
MBP-NF2 (18-595) WT = target: T1, MBP-NF2 (18-595) WT (UniProt P35240 18-595); assay: pull-down; MBP-NF2 bound to MBP resin in PBS 1 h at 4 °C, incubated with purified SUMO-TEAD4 in PBS 1 h at 4 °C, washed four times; SDS-PAGE and anti-6xHis blot
T1 construct: also called MBP-NF2 WT; MBP-NF2 FL; source: purified (amylose resin, Superdex 200); not shown: MBP, N-terminal, kept
T1 sequence (looked up): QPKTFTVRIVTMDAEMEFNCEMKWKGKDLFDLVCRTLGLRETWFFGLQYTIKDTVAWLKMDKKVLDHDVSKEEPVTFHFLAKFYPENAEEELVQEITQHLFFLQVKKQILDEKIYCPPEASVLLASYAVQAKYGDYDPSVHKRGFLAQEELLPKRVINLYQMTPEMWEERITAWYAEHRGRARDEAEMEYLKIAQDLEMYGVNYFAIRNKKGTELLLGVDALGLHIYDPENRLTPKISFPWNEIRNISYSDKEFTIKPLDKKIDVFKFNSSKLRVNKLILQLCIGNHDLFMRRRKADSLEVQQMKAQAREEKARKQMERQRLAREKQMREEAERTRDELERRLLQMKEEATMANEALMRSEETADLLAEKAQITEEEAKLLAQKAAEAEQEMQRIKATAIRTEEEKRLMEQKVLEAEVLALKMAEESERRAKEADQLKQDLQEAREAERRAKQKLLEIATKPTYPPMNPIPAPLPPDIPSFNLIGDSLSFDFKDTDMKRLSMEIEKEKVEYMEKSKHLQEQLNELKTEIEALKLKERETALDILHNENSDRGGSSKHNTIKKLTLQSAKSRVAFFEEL

MBP-NF2 A585W mutant = target: T2, MBP-NF2 A585W mutant (UniProt P35240 18-595, A585W); assay: as above
T2 construct: source: purified as MBP-NF2; not shown: MBP, N-terminal, kept
T2 sequence (looked up): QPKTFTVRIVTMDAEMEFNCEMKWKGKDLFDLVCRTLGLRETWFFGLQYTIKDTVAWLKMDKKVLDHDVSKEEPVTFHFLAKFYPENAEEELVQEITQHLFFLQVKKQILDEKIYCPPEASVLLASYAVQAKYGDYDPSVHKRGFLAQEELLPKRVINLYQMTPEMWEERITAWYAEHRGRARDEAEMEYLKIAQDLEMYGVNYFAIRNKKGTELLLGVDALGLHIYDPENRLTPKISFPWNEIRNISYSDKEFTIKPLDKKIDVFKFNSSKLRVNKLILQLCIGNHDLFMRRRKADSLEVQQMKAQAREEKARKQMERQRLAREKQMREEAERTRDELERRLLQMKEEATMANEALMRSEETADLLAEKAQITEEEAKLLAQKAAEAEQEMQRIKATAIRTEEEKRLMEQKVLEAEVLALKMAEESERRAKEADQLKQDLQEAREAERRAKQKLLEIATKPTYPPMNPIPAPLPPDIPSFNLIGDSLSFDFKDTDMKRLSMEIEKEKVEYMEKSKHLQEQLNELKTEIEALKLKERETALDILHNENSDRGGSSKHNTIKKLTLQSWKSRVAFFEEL

[1] = target: T3, full-length NF2 with GST tag (UniProt P35240 1-595); assay: pull-down; GST-NF2 (full length, truncations) bound to GST resin in PBS 1 h at 4 °C, incubated with purified SUMO-TEAD4 in PBS 1 h at 4 °C, washed four times; SDS-PAGE and anti-6xHis blot; in Figure 2C with or without co-incubated FERM domain
T3 construct: NF2 (Merlin), full length; also called GST-NF2; GST-NF2-FL; source: Escherichia coli, purified
T3 sequence (looked up): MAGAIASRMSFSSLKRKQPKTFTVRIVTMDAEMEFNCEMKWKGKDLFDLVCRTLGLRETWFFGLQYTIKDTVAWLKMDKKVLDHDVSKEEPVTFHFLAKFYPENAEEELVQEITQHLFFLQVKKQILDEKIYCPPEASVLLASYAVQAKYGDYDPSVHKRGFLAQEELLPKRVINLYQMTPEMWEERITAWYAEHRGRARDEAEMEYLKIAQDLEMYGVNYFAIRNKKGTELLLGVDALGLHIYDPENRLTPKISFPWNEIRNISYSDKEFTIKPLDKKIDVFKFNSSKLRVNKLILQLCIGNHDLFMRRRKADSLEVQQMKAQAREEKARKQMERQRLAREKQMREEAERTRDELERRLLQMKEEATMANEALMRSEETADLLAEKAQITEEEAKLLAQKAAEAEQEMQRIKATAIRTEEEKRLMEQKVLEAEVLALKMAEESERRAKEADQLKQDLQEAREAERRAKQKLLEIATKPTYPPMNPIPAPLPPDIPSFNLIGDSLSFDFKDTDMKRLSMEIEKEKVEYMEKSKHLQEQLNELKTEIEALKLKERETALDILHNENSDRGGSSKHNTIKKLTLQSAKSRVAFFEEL

[2] = target: T4, GST-NF2 N-terminal FERM domain (1-341 aa) (UniProt P35240 1-341); assay: as above
T4 construct: also called GST-NF2-FERM WT
T4 sequence (looked up): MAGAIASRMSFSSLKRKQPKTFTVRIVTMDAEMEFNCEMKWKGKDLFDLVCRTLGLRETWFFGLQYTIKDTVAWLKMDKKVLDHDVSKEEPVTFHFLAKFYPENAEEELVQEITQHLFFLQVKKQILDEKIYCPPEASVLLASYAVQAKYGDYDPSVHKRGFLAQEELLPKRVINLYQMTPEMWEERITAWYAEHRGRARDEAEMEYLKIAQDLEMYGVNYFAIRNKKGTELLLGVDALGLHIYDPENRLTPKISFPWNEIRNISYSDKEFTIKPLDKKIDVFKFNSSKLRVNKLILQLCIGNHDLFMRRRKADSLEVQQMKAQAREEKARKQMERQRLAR

[3] = target: T5, GST-NF2 C-terminal half (342-595 aa) (UniProt P35240 342-595); assay: as above
T5 sequence (looked up): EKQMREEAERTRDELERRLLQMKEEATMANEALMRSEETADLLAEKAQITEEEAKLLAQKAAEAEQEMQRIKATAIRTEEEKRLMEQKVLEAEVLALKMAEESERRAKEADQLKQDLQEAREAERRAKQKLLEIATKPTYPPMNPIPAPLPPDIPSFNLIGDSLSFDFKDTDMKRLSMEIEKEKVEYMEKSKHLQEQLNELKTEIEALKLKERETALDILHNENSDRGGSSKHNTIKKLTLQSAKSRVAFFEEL

[4] = target: B1; assay: as above
[5] = target: B1; assay: pull-down; in vitro competitive binding assay: YAP-TEAD4 complex on GST-YAP with a dose addition of NF2; SDS-PAGE

B1
binding result (MBP-NF2 (18-595) WT): binds
binding result (MBP-NF2 A585W mutant): binds
binding result [1]: binds
binding result [2]: binds
binding result [3]: binds

KLKERETALDILHNENSDRGGSSKHNTIKKLTLQSAKSRVAFFEEL (domain or fragment, UniProt P35240 550-595, looked up, also called C-terminal tail) [GST-NF2 tail region (C-tail, 550-595 aa)]
binding result [4]: binds

B2: GST-NF2-507-595 WT (domain or fragment, UniProt P35240 507-595, looked up)
chain: FDFKDTDMKRLSMEIEKEKVEYMEKSKHLQEQLNELKTEIEALKLKERETALDILHNENSDRGGSSKHNTIKKLTLQSAKSRVAFFEEL
binding result [4]: binds

B3: GST-YAP 47-131 (domain or fragment, UniProt P46937 47-131, looked up)
chain: APPAGHQIVHVRGDSETDLEALFNAVMNPKTANVPQTVPMRLRKLPDSFFKPPEPKSHSRQASTDAGTAGALTPQHVRAHSSPAS
notes: YAP (Yes-associated protein), residues 47-131
binding result [5]: binds

B4: TEAD4-2CS (C335S/C367S), non-palmitoylated mutant of TEAD4-YBD (domain or fragment, human, UniProt Q15561 217-434, looked up)
chain: RSVASSKLWMLEFSAFLEQQQDPDTYNKHLFVHIGQSSPSYSDPYLEAVDIRQIYDKFPEKKGGLKDLFERGPSNAFFLVKFWADLNTNIEDEGSSFYGVSSQYESPENMIITCSTKVSSFGKQVVEKVETEYARYENGHYSYRIHRSPLSEYMINFIHKLKHLPEKYMMNSVLENFTILQVVTNRDTQETLLCIAYVFEVSASEHGAQHHIYRLVKE
notes: TEAD4, human, YBD, residues 217-434 as TEAD4-YBDHis, with C335S and C367S; source: recombinant; not shown: His6, N-terminal, kept
binding result (MBP-NF2 (18-595) WT): binds

Source: article doi:10.1101/2022.11.28.518166, “The direct interaction with transcriptional factor TEAD4 implied a straightforward regulation mechanism of tumor suppressor NF2” (bioRxiv, 2022)
